Key:
brain endothelial cell = assay: 125I-insulin reversible vascular binding (Vi), y-intercept of multiple-time regression; assay type: in vivo, mice (human E3- and E4-targeted replacement); conditions: for Vi, reversible vascular binding: 15 mo, iv, albumin-corrected
Procedure: (§1) Ten micrograms of human insulin (Sigma-Aldrich, St. Louis, MO, USA) was diluted in 0.25 M chloride-free sodium phosphate buffer (PB), pH 7.5, and radioactivity labeled with 0.5–1 mCi Na^125I (Perkin Elmer, Waltham, MA, USA) using the chloramine-T (Sigma-Aldrich) method similar to our previously reported methods. […] Protein labelling by ^125I or by ^99mTc isotopes was characterized by 15% trichloroacetic acid (TCA) precipitation.
(§2) Mice were anesthetized with an intraperitoneal injection of 0.1–0.15 ml 40% urethane to minimize pain and distress. […] Blood from the left carotid artery was collected between 0.5 and 10 min after intravenous injection. Mice were immediately decapitated and their whole brains quickly removed and weighed. Each mouse provided a single blood sample and time matched brain sample. The arterial blood was centrifuged at 5400g for 10 min at 4 °C and serum collected. The brains were dissected into regions according to the method described in Ref.[56] and weighed. The levels of radioactivity in serum (50 μl) and brain regions were counted in a gamma counter (Wizard2, Perkin Elmer, Waltham, MA). […] Expt was calculated from the formula:1 Exposuretime=∫0tCptdt/Cpt, where Cp is the level of radioactivity (cpm) in serum at time (t). Expt corrects for the clearance of peptide from the blood. The influx of insulin was calculated by multiple-time regression analysis as described by Patlaket al.[55],[57]:2 Am/Cpt=Ki∫0tCptdt/Cpt+Vi, where Am is level of radioactivity (cpm) per g of brain tissue at time t, Cpt is the level of radioactivity (cpm) per ml arterial serum at time t, Ki (μl/g-min) is the steady-state rate of unidirectional solute influx from blood to brain. Vi (μl/g) is the level of rapid and reversible binding for brain which usually is a combination of vascular space plus any brain endothelial cell receptor binding. The brain/serum (B/S) ratios for insulin were corrected for vascular space by subtracting the corresponding ratio for albumin, yielding a delta B/S ratio. The linear portion of the relation between the delta B/S ratio versus Expt was used to calculate the Ki (μl/g-min) with its standard error term, and the y-intercept determined as representation of the Vi (μl/g)[55].
(§3) As a priori sex differences were expected, male and female data were analyzed separately. Regression analyses and other statistical analyses were performed with Prism 8.0 (GraphPad Software Inc., San Diego, CA, USA) and SPSS (Chicago, IL) software. Brain weight means are reported with their standard error terms and analyzed using two-way analysis of variance (ANOVA) followed by Sidak’s post hoc test when appropriate. For pharmacokinetic studies, the slope of the linear regression lines (Ki), reported with their correlation coefficients (r), and y-intercepts (Vi) were compared statistically using the Prism software, as described.

[1] = system: blood–brain barrier (BBB); assay: 125I-insulin BBB transport, multiple-time regression analysis (Ki); assay type: in vivo, mice (human E3- and E4-targeted replacement); conditions: for Ki, linear BBB transport (unidirectional influx rate): 15 mo, iv, albumin-corrected
Procedure: as §1, §2, §3

[2] = female E3 HFD mice, hippocampus
[3] = female E3 HFD mice, parietal cortex
[4] = female E3 HFD mice, pons/medulla
[5] = female E3 LFD mice, hippocampus
[6] = female E3 LFD mice, pons/medulla
[7] = female E4 HFD mice, frontal cortex
[8] = female E4 HFD mice, pons/medulla
[9] = female E4 LFD mice, hypothalamus
[10] = female E4 LFD mice, pons/medulla
[11] = male E3 HFD mice, occipital cortex
[12] = male E3 LFD mice, occipital cortex
[13] = male E3 LFD mice, olfactory bulb
[14] = male E4 LFD mice, parietal cortex

In the case of “125I-insulin: human insulin (Sigma-Aldrich) radioactively labeled with Na125I by the chloramine-T method”, the “Vi, reversible vascular binding” value (brain endothelial cell; [2]) is reported as 5.8 µL/g, the “Vi, reversible vascular binding” value (brain endothelial cell; female E3 HFD mice, midbrain) is reported as 2.1 µL/g and the “Vi, reversible vascular binding” value (brain endothelial cell; [3]) is reported as 2.3 µL/g. The “Vi, reversible vascular binding” value (brain endothelial cell; [4]) was 4.4 µL/g, the “Vi, reversible vascular binding” value (brain endothelial cell; female E3 LFD mice, frontal cortex) was 6.3 µL/g and the “Vi, reversible vascular binding” value (brain endothelial cell; [5]) was 5.1 µL/g. For the same substance, the “Vi, reversible vascular binding” value (brain endothelial cell; female E3 LFD mice, hypothalamus) was -0.2 µL/g, the “Vi, reversible vascular binding” value (brain endothelial cell; female E3 LFD mice, olfactory bulb) was 11.7 µL/g and the “Vi, reversible vascular binding” value (brain endothelial cell; [6]) was 7.9 µL/g. For the same substance, the “Vi, reversible vascular binding” value (brain endothelial cell; female E3 LFD mice, striatum) was 4.0 µL/g, the “Vi, reversible vascular binding” value (brain endothelial cell; female E3 LFD mice, thalamus) was 8.4 µL/g and the “Vi, reversible vascular binding” value (brain endothelial cell; [7]) was 5.2 µL/g. For the same substance, the “Vi, reversible vascular binding” value (brain endothelial cell; female E4 HFD mice, occipital cortex) was 4.1 µL/g, the “Vi, reversible vascular binding” value (brain endothelial cell; [8]) was 3.0 µL/g and the “Vi, reversible vascular binding” value (brain endothelial cell; female E4 LFD mice, hippocampus) was 8.8 µL/g. The “Vi, reversible vascular binding” value (brain endothelial cell; [9]) was 4.4 µL/g, the “Vi, reversible vascular binding” value (brain endothelial cell; female E4 LFD mice, midbrain) was 5.4 µL/g and the “Vi, reversible vascular binding” value (brain endothelial cell; female E4 LFD mice, occipital cortex) was 3.9 µL/g. For the same substance, the “Vi, reversible vascular binding” value (brain endothelial cell; female E4 LFD mice, parietal cortex) was 7.9 µL/g, the “Vi, reversible vascular binding” value (brain endothelial cell; [10]) was 9.4 µL/g and the “Vi, reversible vascular binding” value (brain endothelial cell; female E4 LFD mice, striatum) was 6.3 µL/g. For the same substance, the “Vi, reversible vascular binding” value (brain endothelial cell; female E4 LFD mice, thalamus) was 8.8 µL/g, the “Vi, reversible vascular binding” value (brain endothelial cell; [11]) was 0.2 µL/g and the “Vi, reversible vascular binding” value (brain endothelial cell; male E3 HFD mice, olfactory bulb) was 0.4 µL/g. For the same substance, the “Vi, reversible vascular binding” value (brain endothelial cell; male E3 HFD mice, pons/medulla) was 1.7 µL/g, the “Vi, reversible vascular binding” value (brain endothelial cell; male E3 HFD mice, thalamus) was 2.3 µL/g and the “Vi, reversible vascular binding” value (brain endothelial cell; male E3 LFD mice, frontal cortex) was 4.0 µL/g. The “Vi, reversible vascular binding” value (brain endothelial cell; [12]) was 5.0 µL/g, the “Vi, reversible vascular binding” value (brain endothelial cell; [13]) was 5.9 µL/g and the “Vi, reversible vascular binding” value (brain endothelial cell; male E3 LFD mice, parietal cortex) was 5.8 µL/g. The “Vi, reversible vascular binding” value (brain endothelial cell; male E4 HFD mice, pons/medulla) was 3.4 µL/g, the “Vi, reversible vascular binding” value (brain endothelial cell; male E4 HFD mice, striatum) was 4.2 µL/g and the “Vi, reversible vascular binding” value (brain endothelial cell; male E4 LFD mice, cerebellum) was 8.1 µL/g. For the same substance, the “Vi, reversible vascular binding” value (brain endothelial cell; male E4 LFD mice, hypothalamus) was 8.0 µL/g, the “Vi, reversible vascular binding” value (brain endothelial cell; male E4 LFD mice, occipital cortex) was 4.1 µL/g and the “Vi, reversible vascular binding” value (brain endothelial cell; [14]) was 3.4 µL/g. For the same substance, the “Vi, reversible vascular binding” value (brain endothelial cell; male E4 LFD mice, striatum) was 4.4 µL/g, the “Vi, reversible vascular binding” value (brain endothelial cell; male E4 LFD mice, thalamus) was 4.1 µL/g and the “Whole brain reversible vascular binding (Vi, y-axis intercept)” value (brain endothelial cell; males, between apoE isoform/diet groups, p = 0.002) was “differences”. For the same substance, the “Ki, linear BBB transport (unidirectional influx rate)” value (from here on “Ki, linear BBB transport”) ([1]; female E3 HFD mice, cerebellum) was 1.34 µL/g/min, the “Ki, linear BBB transport” value [1, 2] was 0.96 µL/g/min and the “Ki, linear BBB transport” value ([1]; female E3 HFD mice, occipital cortex) was 1.03 µL/g/min. For the same substance, the “Ki, linear BBB transport” value ([1]; female E3 HFD mice, olfactory bulb) was 1.19 µL/g/min, the “Ki, linear BBB transport” value [1, 3] was 0.95 µL/g/min and the “Ki, linear BBB transport” value [1, 4] was 1.31 µL/g/min. The “Ki, linear BBB transport” value ([1]; female E3 HFD mice, striatum) was 1.32 µL/g/min, the “Ki, linear BBB transport” value ([1]; female E3 HFD mice, thalamus) was 0.91 µL/g/min and the “Ki, linear BBB transport” value ([1]; female E3 LFD mice, cerebellum) was 1.17 µL/g/min. For the same substance, the “Ki, linear BBB transport” value [1, 5] was 1.43 µL/g/min, the “Ki, linear BBB transport” value ([1]; female E3 LFD mice, midbrain) was 0.78 µL/g/min and the “Ki, linear BBB transport” value ([1]; female E3 LFD mice, occipital cortex) was 0.73 µL/g/min. The “Ki, linear BBB transport” value ([1]; female E3 LFD mice, olfactory bulb, no significant transport (p > 0.05)) was 1.06 µL/g/min, the “Ki, linear BBB transport” value ([1]; female E3 LFD mice, parietal cortex, no significant transport (p > 0.05)) was 0.64 µL/g/min and the “Ki, linear BBB transport” value [1, 6] was 0.91 µL/g/min. The “Ki, linear BBB transport” value ([1]; female E3 LFD mice, striatum) was 0.56 µL/g/min, the “Ki, linear BBB transport” value ([1]; female E3 LFD mice, thalamus, no significant transport (p > 0.05)) was 0.71 µL/g/min and the “Ki, linear BBB transport” value ([1]; female E4 HFD mice, cerebellum) was 1.04 µL/g/min. The “Ki, linear BBB transport” value [1, 7] was 0.62 µL/g/min, the “Ki, linear BBB transport” value ([1]; female E4 HFD mice, hypothalamus) was 1.41 µL/g/min and the “Ki, linear BBB transport” value ([1]; female E4 HFD mice, olfactory bulb) was 1.34 µL/g/min. For the same substance, the “Ki, linear BBB transport” value ([1]; female E4 HFD mice, parietal cortex) was 0.92 µL/g/min, the “Ki, linear BBB transport” value [1, 8] was 1.27 µL/g/min and the “Ki, linear BBB transport” value ([1]; female E4 HFD mice, striatum, no significant transport (p > 0.05)) was 0.85 µL/g/min. The “Ki, linear BBB transport” value ([1]; female E4 LFD mice, cerebellum) was 1.63 µL/g/min, the “Ki, linear BBB transport” value [1, 9] was 1.12 µL/g/min and the “Ki, linear BBB transport” value ([1]; female E4 LFD mice, midbrain) was 0.50 µL/g/min. For the same substance, the “Ki, linear BBB transport” value [1, 10] was 0.81 µL/g/min, the “Ki, linear BBB transport” value ([1]; female E4 LFD mice, striatum, no significant transport (p > 0.05)) was 0.30 µL/g/min and the “Whole brain BBB transport or vascular binding” value ([1]; females, effect of genotype or diet) was “no differences”. For the same substance, the “Ki, linear BBB transport” value ([1]; male E3 HFD mice, cerebellum) was 1.08 µL/g/min, the “Ki, linear BBB transport” value ([1]; male E3 HFD mice, hippocampus, no significant transport (p > 0.05)) was 1.08 µL/g/min and the “Ki, linear BBB transport” value ([1]; male E3 HFD mice, hypothalamus, no significant transport (p > 0.05)) was 0.57 µL/g/min. The “Ki, linear BBB transport” value ([1]; male E3 HFD mice, midbrain, no significant transport (p > 0.05)) was 0.96 µL/g/min, the “Ki, linear BBB transport” value [1, 11] was 0.88 µL/g/min and the “Ki, linear BBB transport” value ([1]; male E3 HFD mice, parietal cortex, no significant transport (p > 0.05)) was -0.07 µL/g/min. For the same substance, the “Ki, linear BBB transport” value ([1]; male E3 HFD mice, striatum, no significant transport (p > 0.05)) was 0.04 µL/g/min, the “Ki, linear BBB transport” value ([1]; male E3 HFD mice, thalamus, no significant transport (p > 0.05)) was 0.65 µL/g/min and the “Ki, linear BBB transport” value ([1]; male E3 LFD mice, cerebellum) was 1.06 µL/g/min. The “Ki, linear BBB transport” value ([1]; male E3 LFD mice, hippocampus) was 0.92 µL/g/min, the “Ki, linear BBB transport” value ([1]; male E3 LFD mice, hypothalamus) was 1.22 µL/g/min and the “Ki, linear BBB transport” value ([1]; male E3 LFD mice, midbrain) was 0.40 µL/g/min. The “Ki, linear BBB transport” value [1, 12] was 0.75 µL/g/min, the “Ki, linear BBB transport” value [1, 13] was 1.28 µL/g/min and the “Ki, linear BBB transport” value ([1]; male E3 LFD mice, pons/medulla) was 1.41 µL/g/min. The “Ki, linear BBB transport” value ([1]; male E3 LFD mice, striatum, no significant transport (p > 0.05)) was 0.59 µL/g/min, the “Ki, linear BBB transport” value ([1]; male E3 LFD mice, thalamus, no significant transport (p > 0.05)) was 0.56 µL/g/min and the “Ki, linear BBB transport” value ([1]; male E4 HFD mice, hippocampus, no significant transport (p > 0.05)) was 0.36 µL/g/min. For the same substance, the “Ki, linear BBB transport” value ([1]; male E4 HFD mice, hypothalamus, no significant transport (p > 0.05)) was 0.35 µL/g/min, the “Ki, linear BBB transport” value ([1]; male E4 HFD mice, pons/medulla) was 0.65 µL/g/min and the “Ki, linear BBB transport” value ([1]; male E4 HFD mice, striatum, no significant transport (p > 0.05)) was -0.12 µL/g/min. For the same substance, the “Ki, linear BBB transport” value ([1]; male E4 LFD mice, frontal cortex) was 0.65 µL/g/min, the “Ki, linear BBB transport” value ([1]; male E4 LFD mice, hippocampus) was 1.28 µL/g/min and the “Ki, linear BBB transport” value ([1]; male E4 LFD mice, hypothalamus, no significant transport (p > 0.05)) was 0.46 µL/g/min. The “Ki, linear BBB transport” value ([1]; male E4 LFD mice, midbrain) was 0.53 µL/g/min, the “Ki, linear BBB transport” value [1, 14] was 0.73 µL/g/min and the “Ki, linear BBB transport” value ([1]; male E4 LFD mice, striatum, no significant transport (p > 0.05)) was 0.57 µL/g/min. The “Whole brain BBB transport rate (Ki)” value ([1]; males, decreases due to HFD, p = 0.056) was “did not reach significance”.
